Experiment [1] concerns the target T1, cynoCD47/mFc fusion protein (extracellular domain of cynomolgus CD47 fused to mouse Fc) (Macaca fascicularis, UniProt A0A2K5X4I2).
T1 construct: cynomolgus monkey CD47 extracellular domain, cDNA cloned from a cynomolgus spleen cDNA library (BioChain); differs from human CD47 at 3 amino acids in the extracellular domain; also called cyno-CD47 Fc fusion protein; cynomolgus monkey CD47
As to the kind of experiment: SPR; Biacore 2000; antibody amine coupled to a CM4 chip, CD47 constructs as analyte; 10 mM HEPES pH 7.4, 150 mM NaCl, 0.005% tween-20; 25°C; global fit to a 1:1 model with mass transport. The following applies: both partners purified. Background: Surface plasmon resonance follows binding to a sensor surface in real time, without labels.

Experiment [2] has as its target T2, human CD47/mFc fusion protein (extracellular domain of human CD47 fused to mouse Fc) (human, UniProt Q08722).
T2 construct: human CD47 extracellular domain, cloned from a full-length human CD47 cDNA (Open Biosystems); also called huCD47/mFc; hCD47/mFc; source: purified recombinant
As to the kind of experiment: ELISA; competition: plates coated with 1 μg/ml huCD47/mFc; 10 μg/ml biotin-labeled mouse 5F9 with various concentrations of unlabeled Hu5F9-G4, room temperature 1 hr; HRP-streptavidin. The following applies: both partners purified. (In an ELISA, binding on a coated surface is turned into a signal by an enzyme label.)

For experiment [3], the target named is T3, human CD47 on stably transfected rat YB2/0 cells (Homo sapiens, UniProt Q08722).
T3 construct: human CD47 expressed on the surface of YB2/0 cells; also called CD47-transfected YB2/0 cells; source: rat YB2/0 cells, stably transfected, on cells
As to the kind of experiment: flow cytometry on cells; hybridoma clones (supernatants) tested by FACS on parental or human CD47-transfected rat YB2/0 cells. As to conditions: partners not purified. (In general: Flow cytometry measures light scatter and fluorescence of single cells or particles in a stream.)

B1: Hu5F9-G4 (humanized 5F9 antibody, human IgG4 with Ser228Pro) (antibody, V domains shown)
VH: QVQLVQSGAEVKKPGASVKVSCKASGYTFTNYNMHWVRQAPGQRLEWMGTIYPGNDDTSYNQKFKDRVTITADTSASTAYMELSSLRSEDTAVYYCARGGYRAMDYWGQGTLVTVSS
VL: DIVMTQSPLSLPVTPGEPASISCRSSQSIVYSNGNTYLGWYLQKPGQSPQLLIYKVSNRFSGVPDRFSGSGSGTDFTLKISRVEAEDVGVYYCFQGSHVPYTFGQGTKLEIK
In experiment [1], B1 yielded a dissociation constant Kd of 0.01 nM.

B2: mouse anti-human CD47 monoclonal antibody 5F9 (antibody, V domains shown)
VH: QVQLQQPGAELVKPGASVMMSCKASGYTFTNYNMHWVKQTPGQGLEWIGTIYPGNDDTSYNQKFKDKATLTADKSSSAAYMQLSSLTSEDSAVYYCARGGYRAMDYWGQGTSVTVSS
VL: DVLMTQTPLSLPVSLGDQASISCRSSQSIVYSNGNTYLGWYLQKPGQSPKLLIYKVSNRFSGVPDRFSGSGSGTDFTLKISRVEAEDLGVYHCFQGSHVPYTFGGGTKVEIK
notes: mouse 5F9 VH (IGHV1 family); mouse heavy chain constant region; mouse 5F9 VL (IGKV1 subgroup); mouse light chain constant region; not described beyond the IGKV1 V segment; also called mouse 5F9; parental mouse 5F9; source: hybridoma (spleen cells of immunized Balb/c mice fused with SP2/0 cells); supernatant in the FACS screen; copies: 2 + 2
For B2, the binding result in experiment [2] and in experiment [3] was “binds” in each case.

As a reminder, the Kd is the constant that tells how readily two partners part at equilibrium. Read a high Kd as a looser complex.
